Reference: the RNAGym collection of RNA variant scans (doi:10.1093/nar/gkz1192)

B1: CPEB3 Ribozyme (parent)
chain: UAACAGGGGGCCACAGCAGAAGCGUUCACGUCGCAGCCCCUGUCAGAUUCUGGUGAAUCUGCGAAUUCUGCUGUAUAUCUC

Variants of: B1
Test: self-cleavage, relative activity (ratio to wild type); higher = more cleavage; in vitro, sequencing
Method in brief: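 CPEB3 self-cleaving ribozyme mutant libraries were made by rounds of error-prone PCR, barcoded, and transcribed in vitro with T7 RNA polymerase for 5 hours at 37°C. Cleavage occurred during transcription and a 15 min DNase I step before EDTA stop. RNAs were reverse transcribed with template switching and Illumina-sequenced, with DNA sequencing mapping barcodes to variants. Relative activity is the variant's cleaved/total read fraction divided by wild type's (minimum 5 reads), averaged across three batches.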

Row | Variant | self-cleavage
1 | UAACAGGGGGCCACAGCAGAAGCGUUCACGUCGCAGCCCCUGUCAGAUACUGGUGAAUCUGCGAACUCUGCUGUAUAUCUC | 0.38
2 | UAACAGGGGGCCACAGCAGAAGCGUUCACGUCGCAGCCCCUGUCAGAUACUGGUGAAUCUGCGAAUACUGCUGUAUAUCUC | 0.57
3 | UAACAGGGGGCCACAGCAGAAGCGUUCACGUCGCAGCCCCUGUCAGAUACUGGUGAAUCUGCGAAUCCUGCUGUAUAUCUC | 0.3
4 | UAACAGGGGGCCACAGCAGAAGCGUUCACGUCGCAGCCCCUGUCAGAUACUGGUGAAUCUGCGAAUUCAGCUGUAUAUCUC | 0.34
5 | UAACAGGGGGCCACAGCAGAAGCGUUCACGUCGCAGCCCCUGUCAGAUACUGGUGAAUCUGCGAAUUCCGCUGUAUAUCUC | 0.44
6 | UAACAGGGGGCCACAGCAGAAGCGUUCACGUCGCAGCCCCUGUCAGAUACUGGUGAAUCUGCGAAUUCGGCUGUAUAUCUC | 0.61
7 | UAACAGGGGGCCACAGCAGAAGCGUUCACGUCGCAGCCCCUGUCAGAUACUGGUGAAUCUGCGAAUUCUGCAGUAUAUCUC | 0.44
8 | UAACAGGGGGCCACAGCAGAAGCGUUCACGUCGCAGCCCCUGUCAGAUACUGGUGAAUCUGCGAAUUCUGCCGUAUAUCUC | 0.87
9 | UAACAGGGGGCCACAGCAGAAGCGUUCACGUCGCAGCCCCUGUCAGAUACUGGUGAAUCUGCGAAUUCUGCGGUAUAUCUC | 0.4
10 | UAACAGGGGGCCACAGCAGAAGCGUUCACGUCGCAGCCCCUGUCAGAUACUGGUGAAUCUGCGAAUUCUGCUGAAUAUCUC | 1.34
11 | UAACAGGGGGCCACAGCAGAAGCGUUCACGUCGCAGCCCCUGUCAGAUACUGGUGAAUCUGCGAAUUCUGCUGCAUAUCUC | 0.95
12 | UAACAGGGGGCCACAGCAGAAGCGUUCACGUCGCAGCCCCUGUCAGAUACUGGUGAAUCUGCGAAUUCUGCUGUACAUCUC | 0.69
13 | UAACAGGGGGCCACAGCAGAAGCGUUCACGUCGCAGCCCCUGUCAGAUACUGGUGAAUCUGCGAAUUCUGCUGUAUACCUC | 0.57
14 | UAACAGGGGGCCACAGCAGAAGCGUUCACGUCGCAGCCCCUGUCAGAUACUGGUGAAUCUGCGAAUUCUGCUGUAUAGCUC | 0.6
15 | UAACAGGGGGCCACAGCAGAAGCGUUCACGUCGCAGCCCCUGUCAGAUACUGGUGAAUCUGCGAAUUCUGCUGUAUAUCAC | 0.88
16 | UAACAGGGGGCCACAGCAGAAGCGUUCACGUCGCAGCCCCUGUCAGAUACUGGUGAAUCUGCGAAUUCUGCUGUAUAUCCC | 0.69
17 | UAACAGGGGGCCACAGCAGAAGCGUUCACGUCGCAGCCCCUGUCAGAUACUGGUGAAUCUGCGAAUUCUGCUGUAUAUCGC | 0.88
18 | UAACAGGGGGCCACAGCAGAAGCGUUCACGUCGCAGCCCCUGUCAGAUCCUGGUGAAUCUGCGAAUUCUGCUGUAUAUCUC | 0.43
19 | UAACAGGGGGCCACAGCAGAAGCGUUCACGUCGCAGCCCCUGUCAGAUCCUGGUGCAUCUGCGAAUUCUGCUGUAUAUCUC | 0.42
20 | UAACAGGGGGCCACAGCAGAAGCGUUCACGUCGCAGCCCCUGUCAGAUCCUGGUGGAUCUGCGAAUUCUGCUGUAUAUCUC | 1.04
21 | UAACAGGGGGCCACAGCAGAAGCGUUCACGUCGCAGCCCCUGUCAGAUCCUGGUGUAUCUGCGAAUUCUGCUGUAUAUCUC | 0.48
22 | UAACAGGGGGCCACAGCAGAAGCGUUCACGUCGCAGCCCCUGUCAGAUCCUGGUGAGUCUGCGAAUUCUGCUGUAUAUCUC | 0.35
23 | UAACAGGGGGCCACAGCAGAAGCGUUCACGUCGCAGCCCCUGUCAGAUCCUGGUGAUUCUGCGAAUUCUGCUGUAUAUCUC | 0.33

Row | Variant | self-cleavage
24 | UAACAGGGGGCCACAGCAGAAGCGUUCACGUCGCAGCCCCUGUCAGAUCCUGGUGAAUCUGCGCAUUCUGCUGUAUAUCUC | 0.26
25 | UAACAGGGGGCCACAGCAGAAGCGUUCACGUCGCAGCCCCUGUCAGAUCCUGGUGAAUCUGCGGAUUCUGCUGUAUAUCUC | 0.27
26 | UAACAGGGGGCCACAGCAGAAGCGUUCACGUCGCAGCCCCUGUCAGAUCCUGGUGAAUCUGCGUAUUCUGCUGUAUAUCUC | 0.24
27 | UAACAGGGGGCCACAGCAGAAGCGUUCACGUCGCAGCCCCUGUCAGAUCCUGGUGAAUCUGCGACUUCUGCUGUAUAUCUC | 0.14
28 | UAACAGGGGGCCACAGCAGAAGCGUUCACGUCGCAGCCCCUGUCAGAUCCUGGUGAAUCUGCGAGUUCUGCUGUAUAUCUC | 0.26
29 | UAACAGGGGGCCACAGCAGAAGCGUUCACGUCGCAGCCCCUGUCAGAUCCUGGUGAAUCUGCGAUUUCUGCUGUAUAUCUC | 0.26
30 | UAACAGGGGGCCACAGCAGAAGCGUUCACGUCGCAGCCCCUGUCAGAUCCUGGUGAAUCUGCGAAUUCUGCUGUCUAUCUC | 0.55
31 | UAACAGGGGGCCACAGCAGAAGCGUUCACGUCGCAGCCCCUGUCAGAUCCUGGUGAAUCUGCGAAUUCUGCUGUGUAUCUC | 0.4
32 | UAACAGGGGGCCACAGCAGAAGCGUUCACGUCGCAGCCCCUGUCAGAUCCUGGUGAAUCUGCGAAUUCUGCUGUUUAUCUC | 0.62
33 | UAACAGGGGGCCACAGCAGAAGCGUUCACGUCGCAGCCCCUGUCAGAUCCUGGUGAAUCUGCGAAUUCUGCUGUAUGUCUC | 0.45
34 | UAACAGGGGGCCACAGCAGAAGCGUUCACGUCGCAGCCCCUGUCAGAUCCUGGUGAAUCUGCGAAUUCUGCUGUAUUUCUC | 0.37
35 | UAACAGGGGGCCACAGCAGAAGCGUUCACGUCGCAGCCCCUGUCAGAUCAUGGUGAAUCUGCGAAUUCUGCUGUAUAUCUC | 0.78
36 | UAACAGGGGGCCACAGCAGAAGCGUUCACGUCGCAGCCCCUGUCAGAUCGUGGUGAAUCUGCGAAUUCUGCUGUAUAUCUC | 0.82
37 | UAACAGGGGGCCACAGCAGAAGCGUUCACGUCGCAGCCCCUGUCAGAUCUUGGUGAAUCUGCGAAUUCUGCUGUAUAUCUC | 0.87
38 | UAACAGGGGGCCACAGCAGAAGCGUUCACGUCGCAGCCCCUGUCAGAUCCUGGUGAAUAUGCGAAUUCUGCUGUAUAUCUC | 0.09
39 | UAACAGGGGGCCACAGCAGAAGCGUUCACGUCGCAGCCCCUGUCAGAUCCUGGUGAAUUUGCGAAUUCUGCUGUAUAUCUC | 0.09
40 | UAACAGGGGGCCACAGCAGAAGCGUUCACGUCGCAGCCCCUGUCAGAUCCUGGUGAAUCUGAGAAUUCUGCUGUAUAUCUC | 0.17
41 | UAACAGGGGGCCACAGCAGAAGCGUUCACGUCGCAGCCCCUGUCAGAUCCUGGUGAAUCUGGGAAUUCUGCUGUAUAUCUC | 0.46
42 | UAACAGGGGGCCACAGCAGAAGCGUUCACGUCGCAGCCCCUGUCAGAUCCUGGUGAAUCUGUGAAUUCUGCUGUAUAUCUC | 0.33
43 | UAACAGGGGGCCACAGCAGAAGCGUUCACGUCGCAGCCCCUGUCAGAUCCUGGUGAAUCUGCGAAUUAUGCUGUAUAUCUC | 0.15
44 | UAACAGGGGGCCACAGCAGAAGCGUUCACGUCGCAGCCCCUGUCAGAUCCUGGUGAAUCUGCGAAUUUUGCUGUAUAUCUC | 0.24
45 | UAACAGGGGGCCACAGCAGAAGCGUUCACGUCGCAGCCCCUGUCAGAUCCUGGUGAAUCUGCGAAUUCUGAUGUAUAUCUC | 0.17
46 | UAACAGGGGGCCACAGCAGAAGCGUUCACGUCGCAGCCCCUGUCAGAUCCUGGUGAAUCUGCGAAUUCUGGUGUAUAUCUC | 0.19

Row | Variant | self-cleavage
47 | UAACAGGGGGCCACAGCAGAAGCGUUCACGUCGCAGCCCCUGUCAGAUCCUGGUGAAUCUGCGAAUUCUGUUGUAUAUCUC | 0.23
48 | UAACAGGGGGCCACAGCAGAAGCGUUCACGUCGCAGCCCCUGUCAGAUCCUGGUGAAUCUGCGAAUUCUGCUGUAUAUUUC | 0.76
49 | UAACAGGGGGCCACAGCAGAAGCGUUCACGUCGCAGCCCCUGUCAGAUCCUGGUGAAUCUGCGAAUUCUGCUGUAUAUCUA | 0.76
50 | UAACAGGGGGCCACAGCAGAAGCGUUCACGUCGCAGCCCCUGUCAGAUCCUGGUGAAUCUGCGAAUUCUGCUGUAUAUCUG | 0.51
51 | UAACAGGGGGCCACAGCAGAAGCGUUCACGUCGCAGCCCCUGUCAGAUCCUGGUGAAUCUGCGAAUUCUGCUGUAUAUCUU | 0.68
52 | UAACAGGGGGCCACAGCAGAAGCGUUCACGUCGCAGCCCCUGUCAGAUCCUAGUGAAUCUGCGAAUUCUGCUGUAUAUCUC | 0.8
53 | UAACAGGGGGCCACAGCAGAAGCGUUCACGUCGCAGCCCCUGUCAGAUCCUGAUGAAUCUGCGAAUUCUGCUGUAUAUCUC | 0.52
54 | UAACAGGGGGCCACAGCAGAAGCGUUCACGUCGCAGCCCCUGUCAGAUCCUGCUGAAUCUGCGAAUUCUGCUGUAUAUCUC | 0.44
55 | UAACAGGGGGCCACAGCAGAAGCGUUCACGUCGCAGCCCCUGUCAGAUCCUGGUAAAUCUGCGAAUUCUGCUGUAUAUCUC | 0.18
56 | UAACAGGGGGCCACAGCAGAAGCGUUCACGUCGCAGCCCCUGUCAGAUCCUGGUUAAUCUGCGAAUUCUGCUGUAUAUCUC | 0.24
57 | UAACAGGGGGCCACAGCAGAAGCGUUCACGUCGCAGCCCCUGUCAGAUCCUGGUGAAUCUACGAAUUCUGCUGUAUAUCUC | 0.19
58 | UAACAGGGGGCCACAGCAGAAGCGUUCACGUCGCAGCCCCUGUCAGAUCCUGGUGAAUCUCCGAAUUCUGCUGUAUAUCUC | 0.33
59 | UAACAGGGGGCCACAGCAGAAGCGUUCACGUCGCAGCCCCUGUCAGAUCCUGGUGAAUCUGCAAAUUCUGCUGUAUAUCUC | 0.39
60 | UAACAGGGGGCCACAGCAGAAGCGUUCACGUCGCAGCCCCUGUCAGAUCCUGGUGAAUCUGCUAAUUCUGCUGUAUAUCUC | 0.35
61 | UAACAGGGGGCCACAGCAGAAGCGUUCACGUCGCAGCCCCUGUCAGAUCCUGGUGAAUCUGCGAAUUCUACUGUAUAUCUC | 0.44
62 | UAACAGGGGGCCACAGCAGAAGCGUUCACGUCGCAGCCCCUGUCAGAUCCUGGUGAAUCUGCGAAUUCUUCUGUAUAUCUC | 0.2
63 | UAACAGGGGGCCACAGCAGAAGCGUUCACGUCGCAGCCCCUGUCAGAUCCUGGUGAAUCUGCGAAUUCUGCUAUAUAUCUC | 0.73
64 | UAACAGGGGGCCACAGCAGAAGCGUUCACGUCGCAGCCCCUGUCAGAUCCUGGUGAAUCUGCGAAUUCUGCUUUAUAUCUC | 0.77
65 | UAACAGGGGGCCACAGCAGAAGCGUUCACGUCGCAGCCCCUGUCAGAUCCAGGUGAAUCUGCGAAUUCUGCUGUAUAUCUC | 0.49
66 | UAACAGGGGGCCACAGCAGAAGCGUUCACGUCGCAGCCCCUGUCAGAUCCCGGUGAAUCUGCGAAUUCUGCUGUAUAUCUC | 0.38
67 | UAACAGGGGGCCACAGCAGAAGCGUUCACGUCGCAGCCCCUGUCAGAUCCGGGUGAAUCUGCGAAUUCUGCUGUAUAUCUC | 0.36
68 | UAACAGGGGGCCACAGCAGAAGCGUUCACGUCGCAGCCCCUGUCAGAUCCUGGAGAAUCUGCGAAUUCUGCUGUAUAUCUC | 0.42
